Reference: patent US11839630B2, “CAR-T cells targeting IL-1RAP and their use” (ETABLISSEMENT FRANCAIS DU SANG, priority 2017, dated 2023)

Columns and labels:
[1] = biological target: T1, IL-1RAP recombinant protein (Homo sapiens, UniProt Q9NPH3); assay: ELISA against recombinant IL-1RAP protein; format: binding; conditions: BSA negative control
T1 construct: recombinant fusion protein consisting of the extra cellular part of IL-1RAP (NM_002182.2, NCBI) and the Fc-part of human IgG1; purchased R&D Systems
T1 sequence (Q9NPH3 21-367 limits assumed): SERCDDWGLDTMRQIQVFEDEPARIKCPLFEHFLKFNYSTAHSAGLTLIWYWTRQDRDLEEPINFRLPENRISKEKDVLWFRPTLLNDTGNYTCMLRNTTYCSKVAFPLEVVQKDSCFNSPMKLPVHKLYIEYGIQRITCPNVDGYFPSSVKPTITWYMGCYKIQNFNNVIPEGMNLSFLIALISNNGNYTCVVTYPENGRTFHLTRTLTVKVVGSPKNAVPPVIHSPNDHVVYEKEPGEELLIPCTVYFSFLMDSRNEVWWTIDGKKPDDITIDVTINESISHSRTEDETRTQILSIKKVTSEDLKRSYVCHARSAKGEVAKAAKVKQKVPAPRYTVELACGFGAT
Text: FIG. 2: recognition of IL-1RAP recombinant protein with #E3C3 mAb by the ELISA technique (b). BSA is the negative control (a).
Anti-human Fc antibody was coated on a bottom of a plastic ELISA plate.

IL-1RAP = biological target: T2, IL-1RAP (Homo sapiens, UniProt Q9NPH3); assay: Confocal microscopy on KU812 and Raji cell lines; format: binding; conditions: KU812 cells
T2 sequence (Q9NPH3 21-570): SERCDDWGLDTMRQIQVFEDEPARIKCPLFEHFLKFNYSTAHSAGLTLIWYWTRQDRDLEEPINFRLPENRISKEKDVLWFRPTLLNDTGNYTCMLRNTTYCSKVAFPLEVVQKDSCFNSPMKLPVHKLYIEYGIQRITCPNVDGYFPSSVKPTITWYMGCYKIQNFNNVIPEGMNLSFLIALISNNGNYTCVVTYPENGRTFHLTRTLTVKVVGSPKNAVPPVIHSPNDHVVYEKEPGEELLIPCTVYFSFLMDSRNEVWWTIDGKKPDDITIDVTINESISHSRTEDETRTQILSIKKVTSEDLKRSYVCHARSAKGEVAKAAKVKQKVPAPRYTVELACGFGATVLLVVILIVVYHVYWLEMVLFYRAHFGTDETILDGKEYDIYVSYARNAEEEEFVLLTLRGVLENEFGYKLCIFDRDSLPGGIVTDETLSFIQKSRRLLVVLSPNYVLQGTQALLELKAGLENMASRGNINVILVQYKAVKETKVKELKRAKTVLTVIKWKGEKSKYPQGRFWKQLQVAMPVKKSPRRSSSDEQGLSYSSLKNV
Method: FIG. 4: KU812 (a) and Raji cells lines (b) stained with Fluorescence mAbs [(left panel: anti murine Fc-IgG; medium panel: IL-1RAP (#E3C3)]. Counterstaining was performed by nuclear stain DAPI and superposed to Fluorescent staining (right panel, merge).
Confocal microscopy was assessed on KU812 and Raji cells lines concentrated on slides (Superfrost™ Plus, 4951PLUS4, ThermoFisher Scientific) by Cytospin. Briefly, the cells were stained with Fluorescent monoclonal antibodies: anti murine Fc-IgG; IL-1RAP (#E3C3) and were analyzed with an Olympus BX51 microscope equipped with a QImaging Retiga 2000R camera. Digital images were acquired using the 40× objective and digitalized with Image-Pro Plus (version 6.0, Media Cybernetics). Counterstaining was performed by nuclear stain DAPI (2-(4-Amidinophenyl)-6-indolecarbamidine dihydrochloride, Sigma-Aldrich-France) and superposed to fluorescent staining.

monocyte subpopulation = assay: IL-1RAP cell surface staining of healthy donor monocytes; format: binding, human; conditions: 2/5 peripheral blood and 3/5 bone marrow from healthy donors
Method: FIG. 23: Effect of IL-1RAP CAR T cells on healthy hematopoietic cells and efficiency of the safety suicide gene iCASP9 cassette. (A) IL-1RAP cell surface expression on peripheral blood (left) or bone marrow (right) cells from healthy donors (n=5). SSC-A/CD45+ allowed discrimination of subpopulations as lymphocytes (SSC-A low), monocytes (CD33+), granulocytes (SSC-A high), or HSCs (CD33−/CD34+). RFI was calculated from isotype staining and provided in each window. (B) Representative (1 of 3) IL-1RAP staining of whole human cord blood cells. IL-1RAP staining is provided for whole CD34+, CD34+/CD38−, and CD34+/CD38+ HSC cord blood subpopulations. […] Percentages were calculated using absolute cell number determined using Trucount™ tubes based on 5000 fluorescent-bead cytometry acquisition. […] The quantification was performed after acquiring 5000 fluorescent beads. […] Cell killing was calculated as follows: % Dead cells=[1−(absolute number of viable cells in AP1903-treated cells/absolute number of viable cells in untreated cells)]×100. […] (G) Absolute quantification of IL-1RAP CAR T cells injected in a tumor (CML KU812, i.v.) xenograft NSG model 24 h after i.p. AP1903 (white bars) treatment (n=3 mice/group). […]

B1: #E3C3: mouse anti-hIL-1RAP monoclonal antibody subclone generated by standard hybridoma technique; VH SEQ ID NO: 2, VL SEQ ID NO: 4 (antibody, V domains shown)
VH: MGWSCIILFLVATATGVNSQVQLQQPGAELMMPGASVKVSCEASGYTFTDSWMHWVKQRPGQGLEWIGAIDPSDSYTTYNQKFTGKATLSVDESSNTAYMQLSSLTSEDSAVYYCARYYSGSNYISPFPYWGQGTLVTVSA
VL: MESQIQVFVFVFLWLSGVDGDIVMTQSHKFMSTSVGDRVTITCKASLDVSTAVAWYQQKPGQSPKLLIYSASYRYTGVPDRFTGSGSGTDFTFTISSVQAEDLAVYYCQQHYSPPFTFGSGTNLEIK
modifications: Amino acid sequence of chain H (VH) of murine scFv anti-IL-1RAP; Amino acid sequence of chain K (VL) of murine scFv anti-IL-1RAP
Question: For B1, which “recognition of IL-1RAP recombinant protein by ELISA” value [1] is on record?
Answer: The value was “recognize the IL-1RAP recombinant protein”.

Question: What about the “staining pattern by confocal microscopy” value (IL-1RAP) of the same molecule?
Answer: Its value is “cell membrane staining”.

Question: And the “RFI of monocyte staining (weak staining)” value (monocyte subpopulation)?
Answer: The value was under 2.
